Experimental data as given in publication PMC9674701, “Cancer cell survival depends on collagen uptake into tumor-associated stroma” (Nature Communications, 2022).

Target: FITC-labeled bovine type I Collagen (Chondrex 4001) (bovine, UniProt P02453 162-1217; P02465 80-1117, FITC label (FITC-Col labeled at a 1:1 molar ratio); labelled residues not stated | FITC label (FITC-Col labeled at a 1:1 molar ratio); labelled residues not stated)
Test: cell-based or functional assay

Sequence of FITC-labeled bovine type I Collagen (Chondrex 4001) (P02453 162-1217, chain 1 of 2): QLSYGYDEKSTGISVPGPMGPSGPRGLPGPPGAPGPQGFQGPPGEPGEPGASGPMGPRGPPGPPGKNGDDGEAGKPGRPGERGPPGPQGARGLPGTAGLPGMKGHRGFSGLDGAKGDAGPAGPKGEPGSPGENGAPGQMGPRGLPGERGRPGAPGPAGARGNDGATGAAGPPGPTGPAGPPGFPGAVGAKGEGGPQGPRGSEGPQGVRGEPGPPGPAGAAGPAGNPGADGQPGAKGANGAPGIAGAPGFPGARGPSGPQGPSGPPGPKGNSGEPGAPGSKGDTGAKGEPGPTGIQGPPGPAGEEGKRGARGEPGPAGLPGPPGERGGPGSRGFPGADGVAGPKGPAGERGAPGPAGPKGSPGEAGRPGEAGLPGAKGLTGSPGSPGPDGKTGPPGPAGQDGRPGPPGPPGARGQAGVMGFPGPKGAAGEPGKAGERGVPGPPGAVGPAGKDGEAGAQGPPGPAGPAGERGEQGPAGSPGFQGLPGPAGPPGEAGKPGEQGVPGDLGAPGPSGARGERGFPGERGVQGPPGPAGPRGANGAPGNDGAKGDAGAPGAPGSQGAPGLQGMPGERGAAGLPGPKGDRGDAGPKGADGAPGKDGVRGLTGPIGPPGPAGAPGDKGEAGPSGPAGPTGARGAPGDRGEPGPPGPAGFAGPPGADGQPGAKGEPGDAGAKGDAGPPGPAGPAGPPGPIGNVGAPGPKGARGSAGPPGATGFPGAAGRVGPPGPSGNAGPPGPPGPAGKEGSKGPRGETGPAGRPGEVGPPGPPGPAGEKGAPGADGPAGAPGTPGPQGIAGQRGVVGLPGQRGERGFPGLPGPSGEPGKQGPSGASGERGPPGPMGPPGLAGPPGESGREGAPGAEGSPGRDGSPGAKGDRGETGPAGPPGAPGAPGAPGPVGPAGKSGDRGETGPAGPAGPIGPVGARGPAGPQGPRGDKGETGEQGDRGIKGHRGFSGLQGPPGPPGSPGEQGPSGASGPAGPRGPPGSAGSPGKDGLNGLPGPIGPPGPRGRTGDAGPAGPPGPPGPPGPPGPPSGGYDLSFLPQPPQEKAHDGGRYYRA
Sequence of FITC-labeled bovine type I Collagen (Chondrex 4001) (P02465 80-1117, chain 2 of 2): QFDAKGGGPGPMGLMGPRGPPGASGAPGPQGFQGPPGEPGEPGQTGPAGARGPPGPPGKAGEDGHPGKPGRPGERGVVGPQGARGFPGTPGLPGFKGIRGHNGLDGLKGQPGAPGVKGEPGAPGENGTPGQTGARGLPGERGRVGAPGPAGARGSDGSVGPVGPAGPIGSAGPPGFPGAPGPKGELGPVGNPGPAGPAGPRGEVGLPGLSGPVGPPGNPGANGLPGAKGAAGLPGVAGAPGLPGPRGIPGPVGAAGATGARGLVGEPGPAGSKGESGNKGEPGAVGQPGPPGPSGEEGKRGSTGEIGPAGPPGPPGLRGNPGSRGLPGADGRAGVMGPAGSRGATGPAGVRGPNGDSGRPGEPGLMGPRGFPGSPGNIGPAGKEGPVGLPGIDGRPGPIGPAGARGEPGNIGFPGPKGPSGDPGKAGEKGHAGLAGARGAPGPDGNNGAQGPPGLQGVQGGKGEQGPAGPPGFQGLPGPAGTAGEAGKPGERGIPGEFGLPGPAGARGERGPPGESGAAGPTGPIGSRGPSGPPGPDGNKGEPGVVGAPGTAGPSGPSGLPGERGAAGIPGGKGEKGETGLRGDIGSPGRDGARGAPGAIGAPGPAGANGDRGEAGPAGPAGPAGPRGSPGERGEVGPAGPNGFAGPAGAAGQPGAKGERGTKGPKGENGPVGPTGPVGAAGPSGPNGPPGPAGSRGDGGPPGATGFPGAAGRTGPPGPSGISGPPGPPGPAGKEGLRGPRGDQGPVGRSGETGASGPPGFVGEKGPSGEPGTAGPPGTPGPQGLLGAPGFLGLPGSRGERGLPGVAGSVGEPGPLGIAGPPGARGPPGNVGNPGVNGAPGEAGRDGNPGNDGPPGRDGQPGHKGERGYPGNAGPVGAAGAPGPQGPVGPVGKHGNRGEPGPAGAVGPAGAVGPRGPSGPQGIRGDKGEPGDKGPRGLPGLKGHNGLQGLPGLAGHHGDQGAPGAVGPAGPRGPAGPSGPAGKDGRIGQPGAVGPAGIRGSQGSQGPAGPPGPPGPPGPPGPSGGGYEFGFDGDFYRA

B1: TEM8 on TEM8 overexpressing CHO cells (CHO-TEM8), wild type (receptor)
chain: not shown
FITC-col internalization assay, flow cytometry of FITC-col trapped inside cells (Fig. 4e): 5 fold
soluble FITC released into the culture supernatant from a FITC-Col gel, 48 h (Fig. 4d): ~3 fold
